Publication PMC12714832

Biological target: proton-dissociation-permeated sodium channel (PDPNaC1) (Scolopendra subspinipes mutilans)
Test: cryo-EM structure; purified PDPNaC1 in LMNG/CHS, pH 8.0, 4.0 mg/mL; 121,831 particles, C3 symmetry, 3.03 Å; closed (non-conductive) state

- stoichiometry N: 3
Substance: proton-dissociation-permeated sodium channel (PDPNaC1) (natural protein)
